{"source": "the nanobody polyreactivity screen of Harvey et al. (2022)"}
{"assay": "yeast display, Sf9 membrane polyspecificity reagent, FACS + sequencing; frameworks hold sequencing errors", "summary_of_the_method": "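Nanobodies came from a synthetic yeast display library in Saccharomyces cerevisiae BJ5465, induced with galactose for 36–48 hours and stained for 1 hour at 4 °C with 10% biotinylated, detergent-solubilized Sf9 membrane reagent. Cells were enriched on streptavidin microbeads and then FACS-sorted, with low and high (top ~1%) gates set on anti-HA fluorescence for expression and streptavidin fluorescence for reagent binding. Each polyreactivity label reflects the gate a clone came from. Genes were amplified by colony PCR, sequenced by MiSeq 2 × 250 and filtered by CDR length.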"}
{"sequence": "QVQLVESGGGLVQAGGSLRLSCAASGSIFGTNGMGWYRQAPGKERELVAAITRRGGSTYADSVKGRFTISRDNAKNTVYLQMNSLKPEDTAVYYCAAQGYLRLRTHFNYWGQGTQVTVSS", "polyreactivity (PSR sort gate)": "low polyreactivity"}
{"sequence": "QVQLVESGGGLVQAGGSLRLSCAASGSIFGTYAMGWYRPAPGNERELVAAITWRDDGNTYYADSVQGRFTISRDNAKNTVYLQMNSLQPEDTAVYYGAASRAYGKDAYRGYSYRYDYWGQGTQGTVSS", "polyreactivity (PSR sort gate)": "high polyreactivity"}
{"sequence": "QVQLVESGGGLVQAGGSLRLSCAASGSIFGTYAMGWYRQAPGKERELVAAITSSGGSTYYADSVKGRFTISRDNAKNTVYLQMNSLKPEDTAVYYCAAYRRIRVGVPVRTYYYWGQGTQVTVSS", "polyreactivity (PSR sort gate)": "high polyreactivity"}
{"sequence": "QVQLVESGGGLVQAGGSLRLSCAASGSIFGVNALGWYRQAPGKERELVASITGGDSTNYADSVKGRFTISRDNAKNTVYLQMNSLKPEDTAFYYCAKDHYYRYEEGDYWGQGTQVTVSS", "polyreactivity (PSR sort gate)": "low polyreactivity"}
{"sequence": "QVQLVESGGGLVQAGGSLRLSCAASGSIFGVNVMGWYRQAPGKERELVASISGGGSTDYADSVKGRFTISRDNAKNTVYLQMNSLKPEDTAVYYCNAKYWWSNYYWGQGTQVTVSS", "polyreactivity (PSR sort gate)": "low polyreactivity"}
{"sequence": "QVQLVESGGGLVQAGGSLRLSCAASGSIFGVYAMGWYRQAPGKEREFVASISWSAGSTYYADSVKGRFTISRDNAKNTVYLQMNSLKPEDTAVYYCAARVWRYPYYWGQGTQVTVSS", "polyreactivity (PSR sort gate)": "high polyreactivity"}
{"sequence": "QVQLVESGGGLVQAGGSLRLSCAASGSIFGVYAMGWYRQAPGKERELVAAISSRGSSTYYADSVKGRFTISRDNAKNTVYLQMNSLKPEDTAVYYCAARPGIRSYPPGYGYWGQGTQVTVSS", "polyreactivity (PSR sort gate)": "high polyreactivity"}
{"sequence": "QVQLVESGGGLVQAGGSLRLSCAASGSIFGVYAMGWYRQAPGKERELVATISRSGAITYYADSVKGRFTISRDNAKNTVYLQMNSLKPEDTAVYYCAADFFSRDWGQGTQVTVSS", "polyreactivity (PSR sort gate)": "low polyreactivity"}
{"sequence": "QVQLVESGGGLVQAGGSLRLSCAASGSIFGVYTMGWYRQAPGKERELVAAISRNGGSTYYEDSVKGRFTISRDNAKNTVYLQMNSLKPEDTAVYYCATSTSRRYGSRHNYWGQGTQVTVSS", "polyreactivity (PSR sort gate)": "high polyreactivity"}
{"sequence": "QVQLVESGGGLVQAGGSLRLSCAASGSIFGWYAMGWYRQAPGKEREFVAAISGGSTYYADSVKGRFTISRDNAKNTVYLQMNSLKPEDTAVYYCNAQGYYFYPFDYWGQGTQVTVSS", "polyreactivity (PSR sort gate)": "high polyreactivity"}
{"sequence": "QVQLVESGGGLVQAGGSLRLSCAASGSIFGWYAMGWYRQAPGKERELVAAAIDYRDDSTYYADSVKGRFTISRDIAKNTVYLQMNSLKPEDTAVYYCAAEKDGDWRGYDYWGQGTQVTVSS", "polyreactivity (PSR sort gate)": "low polyreactivity"}
{"sequence": "QVQLVESGGGLVQAGGSLRLSCAASGSIFGWYAMGWYRQAPGKERELVAAISSSDGSTYYADSVKGRFTISRDNANNTVYFPMNSLKPEDTEVYYCATDYAFTYAQYDYWGQGTQVTVSS", "polyreactivity (PSR sort gate)": "low polyreactivity"}
{"sequence": "QVQLVESGGGLVQAGGSLRLSCAASGSIFGYAMGWYRQAPGKERELVAAIRWGGGSTYYADSVKGRFTISRDNAKYNVYLQMNSLKPEDTAVYYCAARVGRQWYDYWGQGTQVTVSS", "polyreactivity (PSR sort gate)": "high polyreactivity"}
{"sequence": "QVQLVESGGGLVQAGGSLRLSCAASGSIFGYKAMGWYRQAPRKERELVAAIRSSDSRTHYADSVKGRFTISRDNAKNTVYLQMNRLKPEDTAVYYCAAVKRRPGHYLYDYWGQGTQVTVSS", "polyreactivity (PSR sort gate)": "low polyreactivity"}
{"sequence": "QVQLVESGGGLVQAGGSLRLSCAASGSIFGYNAMGWSRQAPGKERELVAGITSGTSTNYADSVKGRFTISRDNAKNTVYLQMNSLKPEDTEVYYCARTSYRFYRKRYYWGQGTQVTVSS", "polyreactivity (PSR sort gate)": "high polyreactivity"}
{"sequence": "QVQLVESGGGLVQAGGSLRLSCAASGSIFGYNAMGWYRQAPGKERELVAAISRSGGRTYYADSVKGRFTISRDNAKNTVYLQMNSLKPEDTAVYDCAAPVWRYYRGKTFDYWGQGTQVTVSS", "polyreactivity (PSR sort gate)": "high polyreactivity"}
{"sequence": "QVQLVESGGGLVQAGGSLRLSCAASGSIFGYNTMGLYRKAPGKERELVAAISYRGGSTYADSVKGRFTISRDNAKNTVYLQMNSLKPVDTAVYYCDKRSIVGYRYSGYDYCGQGTQVTVSS", "polyreactivity (PSR sort gate)": "high polyreactivity"}
{"sequence": "QVQLVESGGGLVQAGGSLRLSCAASGSIFGYNVMGWYRQAPGKEREFVAAITYRGGGTYADSVKGRFTISRDNAKNTVYLQMNSLKPEDTAVYYCAARWYGWRSRRYDYWGQGTQVTVSS", "polyreactivity (PSR sort gate)": "high polyreactivity"}
{"sequence": "QVQLVESGGGLVQAGGSLRLSCAASGSIFGYYAKGWYRQAPGKERELVAAIDSGGGSTYYADSVRGRVTISRDNAKNTVYIQMNRLKPEDTAVYYCAAVSYSYPSLLYEYWGQGTQVTVSS", "polyreactivity (PSR sort gate)": "low polyreactivity"}
{"sequence": "QVQLVESGGGLVQAGGSLRLSCAASGSIFGYYAMGWSRQAPGKERELVASISSTGSTYYADSVKGRFTISRDNAKNTVSLQMNSLKPEDTAVYYCAADTLIFPWGFESWGQGTQVTVSS", "polyreactivity (PSR sort gate)": "high polyreactivity"}
{"sequence": "QVQLVESGGGLVQAGGSLRLSCAASGSIFGYYAMGWYIQAPGKERELVAAISWSGGSTYYADSVKGRFTISRDNAKNTVYLQMNSLKPEDTAVYYCNAYTRRGGHDYWGQGTQVTVSS", "polyreactivity (PSR sort gate)": "high polyreactivity"}
{"sequence": "QVQLVESGGGLVQAGGSLRLSCAASGSIFGYYAMGWYRQAPGKERELVAAIRGSSGSTYYADSVKGRFTISRDNAKNTVYLQMNSLKPEDTAVYYCAADYRTYVYVYGFRHFDYWGQGTQVTVSS", "polyreactivity (PSR sort gate)": "low polyreactivity"}
{"sequence": "QVQLVESGGGLVQAGGSLRLSCAASGSIFGYYAMGWYRQAPGKERELVAAITTRGGRTYYADSVKGRFTISRDNAKNTVYLQMNSLKPEDTAVYYCAARTGRGRYDYWGQGTQVTVSS", "polyreactivity (PSR sort gate)": "high polyreactivity"}
{"sequence": "QVQLVESGGGLVQAGGSLRLSCAASGSIFGYYAMGWYRQAPGKERELVATITTRGARTYYADSVKGRFTISRDNAKNTVYLQMNSLKPEDTAVYYCAAYGYYNFGYYYWGQGTQVTVSS", "polyreactivity (PSR sort gate)": "high polyreactivity"}
{"sequence": "QVQLVESGGGLVQAGGSLRLSCAASGSIFGYYAMGWYRQAPGKERELVAVITRDASTYYADSVKGRFTISRDNAKNTVDLQMNSLKPEDTAVYYCAADRWWRRSWVKLDYWGHGTQVTVSS", "polyreactivity (PSR sort gate)": "low polyreactivity"}
{"sequence": "QVQLVESGGGLVQAGGSLRLSCAASGSIFGYYAMGWYRQAPGNERELVAAISRSGGSTYYADSVKGRFTISRDNAKNTVYLQMNSLKPEDTAVYYCAADDYPYGNYYWGQGTQVTVSS", "polyreactivity (PSR sort gate)": "high polyreactivity"}
{"sequence": "QVQLVESGGGLVQAGGSLRLSCAASGSIFGYYGMGCYIQAPGKERELVAAISARGGSTYYADSVKGRFTISRDNAKNTVYFQMNRLKPEDTAVYYCAVRYPGSRYLISKNGYWGQGTQVTVSS", "polyreactivity (PSR sort gate)": "high polyreactivity"}
{"sequence": "QVQLVESGGGLVQAGGSLRLSCAASGSIFGYYPMGWYRQAPGKERELVAAITSGGNTYYADSVKGRFTISRDNAKNTVYLQMNSLKPEDTAVYYCNAVWRTRDYDYWGQGTQVTVSS", "polyreactivity (PSR sort gate)": "low polyreactivity"}
{"sequence": "QVQLVESGGGLVQAGGSLRLSCAASGSIFGYYTMGWYIQAPGKERELVARITRGGSTYYADSVKGRFTISRDNAKNTVYLQLNSLKPEDTAVYYCAARRVNAGWTYGLRGNYWGQGTQVTVSS", "polyreactivity (PSR sort gate)": "low polyreactivity"}
{"sequence": "QVQLVESGGGLVQAGGSLRLSCAASGSIFHHNAMGWYRQAPGKERELVAAISSRSGNTYYADSVKGRFTISRDNAKNTVYLQMNSLKPEDTAVYYCAKAFRGHYWGQGTQVTVSS", "polyreactivity (PSR sort gate)": "high polyreactivity"}
{"sequence": "QVQLVESGGGLVQAGGSLRLSCAASGSIFHIYAMGWYRQAPGKERELVAAMTYADSVKGRFTISRDNAKNTVYLQMNSLKPEDTAVYYCNADNWPRIHGSAYDYWGQGTQVTVSS", "polyreactivity (PSR sort gate)": "low polyreactivity"}
{"sequence": "QVQLVESGGGLVQAGGSLRLSCAASGSIFHNYDMGLYRQAPGKEREMVADISRGGDTNYADSVKGRFTISRDNAKNTVYLQLNSLKPEDTAVYYCNATYWILDSPWWRETFAYWGQGTQVTVSS", "polyreactivity (PSR sort gate)": "low polyreactivity"}
{"sequence": "QVQLVESGGGLVQAGGSLRLSCAASGSIFHPYTMGWYRQAPGKERELVAAISWSGGNTNYADSVKGRFTISRDNAKNTVYLQMNSLKPDDTAVYYCIKATNLSGGYDSWGLGTQVTVSS", "polyreactivity (PSR sort gate)": "low polyreactivity"}
{"sequence": "QVQLVESGGGLVQAGGSLRLSCAASGSIFHRNAMGWYRQAPGKEREFVAAISWRGGSTYYADSVKGRFTISRDNAKNTVYLQMNSLKPEDTAVYYCAADPVGYYWSRRSEFYYWGQGTQVTVSS", "polyreactivity (PSR sort gate)": "high polyreactivity"}
{"sequence": "QVQLVESGGGLVQAGGSLRLSCAASGSIFHRNAMGWYRQAPGKERELVATISSSTGSTNYADSVKGRFTISRDNAKNTVYLQMNSLKPEDTAVYYCAAAPHRHSWYYTRHPYFGMDYWGQGTQVTVSS", "polyreactivity (PSR sort gate)": "low polyreactivity"}
{"sequence": "QVQLVESGGGLVQAGGSLRLSCAASGSIFHRYAMGWYRQAPGKERELVAAISRRGGSTYYADSVKGRFTISRDNAKNTVYLQMNSLIPVDTAVYYCNASLAGSSGRNRFEYWGQGTQVTVSS", "polyreactivity (PSR sort gate)": "high polyreactivity"}
{"sequence": "QVQLVESGGGLVQAGGSLRLSCAASGSIFHWYAMGWYRQAPGKERELVAAISYSGASTYYADSVKGRFTISRDNAKITVYLQMNSLKPDDTAVYYCAAKVTGKGYYWGQGTQVTVSS", "polyreactivity (PSR sort gate)": "high polyreactivity"}
{"sequence": "QVQLVESGGGLVQAGGSLRLSCAASGSIFHYNAMGWYRQAPGKERELVAAISWRGGTTYYADSVKGRFTISRDNAKNTVYLQMNSLKPEDTAVYYCNRAYVYTYQRRDYDYWGQGTQVTVSS", "polyreactivity (PSR sort gate)": "low polyreactivity"}
{"sequence": "QVQLVESGGGLVQAGGSLRLSCAASGSIFIGYAMGWYRQAPGKERELVAAISNSGGRTYYADSVKGRFTISRDNAKNTVYLQMNSLKPEDTAVYYCNVAYRIPYRMDYWGQGTQVTVSS", "polyreactivity (PSR sort gate)": "high polyreactivity"}
{"sequence": "QVQLVESGGGLVQAGGSLRLSCAASGSIFIHYAMGWYRQAPGKERELVAAISRTGSTYYADSVKGRFTISRDNAKNTVYLQMNSLKPEDTAVYYCAKRISTRRYDYWGQGTQVTVSS", "polyreactivity (PSR sort gate)": "low polyreactivity"}
{"sequence": "QVQLVESGGGLVQAGGSLRLSCAASGSIFINNGMGWYRQAPGKERELVAAINGGDGSTYYADSVKGRFTISRDNAKNTVYLQMNSLKPEDTAVYYCAKDYTIGYTYQYDYWGQGTQVTVSS", "polyreactivity (PSR sort gate)": "low polyreactivity"}
